The values below come from patent publication US20130273046A1 (UNIVERSITE DE LAUSANNE, published 2013).

One experiment addresses T1, human Fas-Fc (human, UniProt P25445 26-170, limits assumed).
T1 construct: Negative control protein; also called hFas-Fc; not shown: Fc portion
T1 sequence (looked up): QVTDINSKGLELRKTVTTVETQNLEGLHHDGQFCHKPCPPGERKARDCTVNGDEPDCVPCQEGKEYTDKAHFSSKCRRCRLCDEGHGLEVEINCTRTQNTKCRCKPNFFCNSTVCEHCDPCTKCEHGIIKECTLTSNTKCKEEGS
Put plainly: Western blot, 20 ng hFas-Fc (FIG. 7B). The text has this:
(§1) The weaker signal obtained with mouse EDAR might be explained by the lower amount of mouse EDAR-Fc loaded on the gel. Binding specificity is established by showing that none of the mAbEDARs does bind to Fas-Fc and Flag-human APRIL (while Flag-human APRIL is recognized by an anti-APRIL mAb). […] The band recognized by mAbEDAR5 in the BSA lane is probably due to a cross-contamination of EDAR-Fc in the neighboring lane.
Background: A western blot detects proteins with antibodies after separation by electrophoresis.

For the next experiment, the target named is T2, mouse EDAR-Fc (mouse).
T2 construct: also called mouse EDAR (1-183)-Fc; soluble mouse EDAR-Fc fusion protein
T2 sequence (chain, as listed by the source limits assumed): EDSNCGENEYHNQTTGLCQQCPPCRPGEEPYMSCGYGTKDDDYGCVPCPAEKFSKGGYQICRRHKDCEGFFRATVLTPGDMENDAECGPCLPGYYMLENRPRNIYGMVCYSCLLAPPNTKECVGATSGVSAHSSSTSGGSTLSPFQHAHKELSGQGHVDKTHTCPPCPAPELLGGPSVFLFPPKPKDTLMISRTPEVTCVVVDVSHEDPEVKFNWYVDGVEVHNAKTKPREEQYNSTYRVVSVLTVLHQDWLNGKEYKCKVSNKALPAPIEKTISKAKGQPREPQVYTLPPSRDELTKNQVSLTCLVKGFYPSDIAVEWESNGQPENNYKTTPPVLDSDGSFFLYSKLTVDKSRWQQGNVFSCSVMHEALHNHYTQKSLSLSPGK
The experiment is described as follows: ELISA on mouse EDAR-Fc (FIG. 6, 9). As to the method: FIG. 6. Specific binding of the anti-EDAR mAb to both mouse and human EDAR. Graded concentrations of mAbEDAR1-4 or of a control mAb (Aprily 5) were added to wells of a 96-well ELISA plate coated with 100 μl of 1 μg/ml of human EDAR-Fc, mouse EDAR-Fc, human Fas-Fc or Flag-human APRIL. […] The absorbance was measured at 490 nm.
In order to obtain antibodies recognizing both human and mouse EDAR, a feature which would considerably facilitate pre-clinical development of drug candidates, EDAR-deficient mice were immunized with human EDAR. It was then assessed whether monoclonal antibodies generated from these mice indeed recognized EDAR from these two animal species. The wells of microtiter plates were coated with soluble human and mouse EDAR-Fc fusion protein and a negative control protein (human Fas-Fc), blocked and probed with serial dilutions of anti-EDAR monoclonal antibody (mAb) mAbEDAR1, 2, 3 and 4 and a negative control mAb (Aprily 5) (FIG. 6), or with a single dose of mAbEDAR1 to 15 (FIG. 9).
In general terms: ELISA stands for enzyme-linked immunosorbent assay.

Experiment [1] addresses T3, human EDAR domain II alone fused to Fc of human IgG1 (human, UniProt Q9R187 73-114 (mouse entry), limits assumed).
T3 construct: also called CRD2 EDAR-Fc truncation protein; not shown: Fc region of human IgG1
T3 chain: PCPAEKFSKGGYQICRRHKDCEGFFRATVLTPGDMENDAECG
Put plainly: capture ELISA on EDAR-Fc truncation proteins (FIG. 9). The text has this:
(§2) Epitope mapping of anti-EDAR monoclonal antibodies on recombinant human EDAR by ELISA. (A) Schematic linear representation of human EDAR showing the position of cystein residues (thin horizontal lines), of the putative N-linked glycosylation site (thick horizontal line, N), of the six structural modules (rectangles with rounded corners) composing the three cystein-rich domains (CRD1, CRD2, CRD3), of the transmembrane domain (rectangle, TMD), of the signal peptide (Leader), of the stalk and of the intracellular domain (ID). Amino acid numbers at the junctions of interest are indicated. The arrow indicates the predicted cleavage site of the signal peptide. The scheme is drawn to scale, except for the intracellular domain. (B) Wells of ELISA plates were coated with goat anti-human IgG antibody, blocked, and further incubated with human EDAR-Fc, mouse EDAR-Fc or the indicated human EDAR-Fc truncation proteins in cell supernatants of transfected cells. One well was also left without cell supernatant (Ctrl). The efficient capture of the various EDAR-Fc proteins was controlled using horseradish peroxydase-coupled donkey anti-human IgG antibody. Binding of mAbEDARs were monitored with horseradish peroxydase-coupled anti-mouse IgG antibody.
(§3) EDAR is a transmembrane protein whose extracellular part is composed of three membrane distal cystein-rich domains (CRDs) and of a proximal membrane stalk domain (FIG. 9A). Constructs coding for the entire EDAR protein, domains I and II, domains II and III, domain III and the stalk domain, domains I, II and III alone and the stalk domain alone were assembled with the Fc region of human IgG1, inserted into a mammalian expression vector and transiently transfected in 293T cells. […] The other fragments were not recognized, in particular the fragments made up of either domain I or II alone. mAbEDAR5, 6, 12 and 13 specifically recognized domain I, alone or together with domain II. mAbEDAR9, 14 and 15 only recognized Fc constructs containing the entire EDAR extracellular domain.

Experiment [2] addresses T4, human EDAR domains II and III fused to Fc of human IgG1 (human, UniProt Q9R187 73-150 (mouse entry), limits assumed).
T4 construct: also called CRD2 and CRD3 EDAR-Fc truncation protein; not shown: Fc region of human IgG1
T4 sequence: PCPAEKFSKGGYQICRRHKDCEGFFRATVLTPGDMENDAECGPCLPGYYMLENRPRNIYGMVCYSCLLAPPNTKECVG
The experiment is described as above.
From the text: as §2, §3

Experiment [3] addresses T5, human EDAR domain III alone fused to Fc of human IgG1 (human, limits assumed).
T5 construct: also called CRD3 EDAR-Fc truncation protein; not shown: Fc region of human IgG1
T5 chain: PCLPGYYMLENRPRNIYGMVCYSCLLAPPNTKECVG
The description is as above.
From the text: as §2, §3

Experiment [4] addresses T6, human EDAR domain I alone fused to Fc of human IgG1 (human, UniProt Q9UNE0 27-72).
T6 construct: also called CRD1 EDAR-Fc truncation protein; not shown: Fc region of human IgG1
T6 chain: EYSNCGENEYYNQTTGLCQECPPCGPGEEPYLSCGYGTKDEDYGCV
The experiment is described as above.
From the text: as §2, §3

Experiment [5] deals with T7, human EDAR domain III and the stalk domain fused to Fc of human IgG1 (human, UniProt Q9UNE0 115-183, limits assumed).
T7 construct: also called CRD3 and stalk EDAR-Fc truncation protein; not shown: Fc region of human IgG1
T7 sequence: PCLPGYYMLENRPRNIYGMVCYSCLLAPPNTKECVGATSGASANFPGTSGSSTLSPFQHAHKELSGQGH
Described as above.
From the text: as §2, §3

Experiment [6] deals with T8, human EDAR stalk domain alone fused to Fc of human IgG1 (human, limits assumed).
T8 construct: also called stalk EDAR-Fc truncation protein; not shown: Fc region of human IgG1
T8 chain: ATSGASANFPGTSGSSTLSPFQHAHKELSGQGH
The experiment is described as above.
From the text: as §2, §3

In the next experiment the target is T9, Flag-human APRIL (human, UniProt O75888 110-250, limits assumed).
T9 construct: Control antigen; not shown: Flag tag
T9 sequence (looked up): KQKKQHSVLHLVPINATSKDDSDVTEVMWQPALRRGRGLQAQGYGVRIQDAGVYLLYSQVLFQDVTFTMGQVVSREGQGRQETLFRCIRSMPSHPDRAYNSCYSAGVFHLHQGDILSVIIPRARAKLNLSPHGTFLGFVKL
Put plainly: Western blot (FIG. 7A).
From the text: (§4) FIG. 7. Use of anti-EDAR mAb in Western blotting.
as §1

The target in experiment [7] is T10, human EDAR domains I and II fused to Fc of human IgG1 (human, UniProt Q9UNE0 27-114).
T10 construct: Tested as supernatant of transfected 293T cells; also called CRD1 and CRD2 EDAR-Fc truncation protein; fragment made up of domains I and II; not shown: Fc region of human IgG1
T10 sequence: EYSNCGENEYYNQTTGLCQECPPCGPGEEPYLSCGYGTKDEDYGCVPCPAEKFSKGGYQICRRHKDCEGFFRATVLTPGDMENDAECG
The experiment is described as follows: capture ELISA on EDAR-Fc truncation proteins.
From the text: as §2, §3

Another experiment addresses T11, human EDAR-Fc (human).
T11 construct: also called hEDAR-Fc; human EDAR (1-183)-Fc
The experiment is described as follows: Western blot, non-reducing SDS-PAGE (FIG. 7A).
From the text: as §4, §1

B1: mAbEDAR2 (antibody, IgG1, V domains shown)
VH: QVQLQQPGAELVKPGASVKLSCKASGYTFTSYWMQWVKQRPGQGIEWIGEIDPSDSYTYYNQKFKGKATLTIDKSSSTAYMQLSSLTSEDSAVYYCSRKNYYRGMDYWGQGTSVTVSS
VL: DVLMTQTPLSLPVSLGDQASISCRSSQNIVQSNGNTYLEWYLQKPGQSPKLLIYKVSNRFSGVPDRFSGSGSGTDFTLKISRVEADDLGVYYCFQVSHVPYTFGGGTKLEIKR
notes: Light chain identical to that of mAbEDAR4; also called anti-EDAR mAb mAbEDAR2
Take B1: the binding result with human Fas-Fc is reported as “no binding”; with mouse EDAR-Fc, “binds”; in experiment [1] it was “no binding”; in experiment [2], “no binding”; in [3], “no binding”; in experiment [4] it was “no binding”. The binding result was “no binding” in [5]; “no binding” in [6]; “no binding” with Flag-human APRIL; “binds” in experiment [7]; “binds” with human EDAR-Fc.
